Data reported in US20090123479A1 (published 2009).
Positions count from the first letter of the chain named.

B1: A3N1 (antibody, human IgG1, kappa, V domains shown)
VH: QVQLVQSGAEVKKPGSSVKVSCKASGYTFTSYGITWVRQAPGQGLEWMGENYPRSGNTYYNEKFKGRVTITADKSTSTAYMELSSLRSEDTAVYYCARSEFISTVVAPYYYALDYWGQGTLVTVSS
VL: DIVMTQTPLSLSVTPGQPASISCKASKKVTIFGSISALHWYLQKPGQPPQLIYNGAKLESGVSDRFSDSGSQNRSPFGNQLSFTLKISRVEAEDVGVYYCLQNKEVPYTFGGGTKVEIKR
notes: Full length chains
B2: A3N2 (antibody, human IgG1, kappa, V domains shown)
VH: B1 VH
VL: DIVMTQTPLSLSVTPGQPASISCKASKKVTIFGSISALHWYLQKPGQPPQLIYNGAKLESGVSDRFSDSGSGTDFTLKISRVEAEDVGVYYCLQNKEVPYTFGGGTKVEIKR
notes: Full length chains
B3: A8M3 (antibody, V domains shown)
VH: B1 VH with N51D, S99A
VL: DIVMTQSPDSLAVSLGERATINCKASKKVTIFGSTSALHWYQQKPGQPPKLIYNGAKLESGVPDRFSGSGSGTDFTLTISSLQAEDVAVYYCLQNKEVPYTFGGGTKVEIK
B4: A9M3 (antibody, V domains shown)
VH: B1 VH with N51D, S99V
VL: B3 VL
B5: murine mAb 8C9 2H6 (antibody, V domains shown)
VH: QVQLQQSGAELARPGTSVKLSCKASGYTFTSYGITWVKQRTGQGLEWIGENYPRSGNTYYNEKFKGKATLTADKSSSTAYMELRSLTSEDSAVYFCARCEFISTVVAPYYYALDYWGQGTSVTVSS
VL: DIVLTQSPASLAVSLGQKATISCKASKKVTIFGSISALHWYQQKPGQPPKLIYNGAKLESGVSARFSDSGSQNRSPFGNQLSFTLTIDPVEADDAATYYCLQNKEVPYTFGGGTKLEIK
notes: Murine hybridoma antibody; also called mouse parental; IL-23 murine 8C92H6 mAb

What was measured:
recombinant human IL-23 [1] = biological target: T1, recombinant human IL-23 (human, UniProt Q9NPF7 20-189; P29460 23-328); assay: SPR (Biacore T100), CHO supernatant antibody captured on Protein A or anti-human IgG, IL-23 analyte at 256, 64, 16, 4, 1 nM
T1 construct: also called hIL-23
T1 sequence 1: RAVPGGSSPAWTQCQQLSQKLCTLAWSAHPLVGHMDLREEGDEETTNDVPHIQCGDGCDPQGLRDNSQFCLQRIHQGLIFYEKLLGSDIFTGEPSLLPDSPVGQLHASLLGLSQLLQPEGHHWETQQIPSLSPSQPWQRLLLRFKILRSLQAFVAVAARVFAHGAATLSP
T1 sequence 2: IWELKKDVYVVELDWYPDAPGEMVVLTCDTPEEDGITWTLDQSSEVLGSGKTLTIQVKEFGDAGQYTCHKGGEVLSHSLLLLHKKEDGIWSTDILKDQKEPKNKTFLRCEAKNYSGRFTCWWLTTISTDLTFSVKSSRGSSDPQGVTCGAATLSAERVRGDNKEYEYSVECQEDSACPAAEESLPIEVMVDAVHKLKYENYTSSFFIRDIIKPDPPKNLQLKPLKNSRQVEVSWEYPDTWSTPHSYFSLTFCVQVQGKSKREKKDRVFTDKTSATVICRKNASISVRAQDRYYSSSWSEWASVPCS

recombinant human IL-23 [2] = biological target: T1, recombinant human IL-23; assay: sandwich ELISA (optimised protocol, OD450): plate coated with anti-human IL-12, antibody pre-incubated with constant human IL-23, bound antibody detected with anti-human IgG gamma chain HRP; purified antibody
Method: Optimised assay conditions: Plates were coated with anti human IL12 at 2 μg/diluent (phosphate buffered saline). 50 μl/well of this mixture was incubated overnight at 4° C. The plates were then washed three times with Phosphate Buffered Saline with 0.05% Tween 20 (PBST). Plates were blocked with 4% skim milk powder (Fluka BioChemika #70166) PBS 200 μl/well for a minimum of 1 hour at room temperature. The plates were then washed three times with Phosphate Buffered Saline+0.05% Tween 20 (PBST). Various concentrations of antibody were incubated in a separate plate with a constant concentration of IL-23 for 1 hour at room temperature. 50 ul of each mixture were transferred to the assay plate and incubated at RT for 1 hr. They were then washed three times with Phosphate Buffered Saline+0.05% Tween 20 (PBST). […] 50 μl/well of the detection antibody was added and incubated at RT for 1 hour. The plates were then washed three times with Phosphate Buffered Saline+0.05% Tween 20 (PBST). 50 μl/well of TMB was added to the plates and incubated at RT for 10 min. 50 μl/well of 1 MH₂SO₄ was added. The plate was read at OD450 nm using the SOftmaxPRO versamax plate reader.

[3] = biological target: T2, recombinant cynomologus IL-23 (cynomolgus, limits assumed); assay: IL-23/IL-23R inhibition ELISA (optimised protocol, OD450): plate coated with human IL23R Fc chimera, antibody pre-incubated with constant cynomolgus IL-23, bound IL-23 detected with biotinylated anti-human IL-12; purified antibody
T2 construct: also called cynomolgus IL-23; cyno IL23
T2 chain 1: T1 sequence 1 with T12A, H75R, L131P
T2 chain 2: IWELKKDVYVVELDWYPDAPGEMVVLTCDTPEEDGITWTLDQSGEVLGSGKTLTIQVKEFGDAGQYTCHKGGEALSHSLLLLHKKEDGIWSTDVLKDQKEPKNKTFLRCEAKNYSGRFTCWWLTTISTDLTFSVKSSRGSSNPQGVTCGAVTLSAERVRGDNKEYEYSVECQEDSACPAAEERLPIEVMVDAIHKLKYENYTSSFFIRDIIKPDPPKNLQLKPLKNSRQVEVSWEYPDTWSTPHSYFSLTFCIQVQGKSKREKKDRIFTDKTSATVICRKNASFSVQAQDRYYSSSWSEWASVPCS
Method: (§1) Optimised protocol: Plates were coated with human IL23R Fc chimera at […] (phosphate buffered saline). 50 μl/well of this mixture was incubated overnight at 4° C. The plates were then washed three times with Phosphate Buffered Saline with 0.05% Tween 20 (PBST). Plates were blocked with 4% skim milk powder (Fluka BioChemika #70166) PBST 100 μl/well for a minimum of 1 hour at room temperature. The plates were then washed three times with Phosphate Buffered Saline+0.05% Tween 20 (PBST). Various concentrations of antibody were incubated in a separate plate with a constant concentration of IL-23 for 1 hour at room temperature. 50 ul of each mixture were transferred to the assay plate and incubated at RT for 1 hr. They were then washed three times with Phosphate Buffered Saline+0.05% Tween 20 (PBST). Bound IL23 was detected by anti human 1L12 Biotin labelled Ab (R&D systems BAF219) diluted to 100 ng/ml in 4% skim milk powder (Fluka BioChemika #70166) PBST. 50 μl/well of the biotinylated antibody was added and incubated at RT for 1 hour. The plates were then washed three times with Phosphate Buffered Saline+0.05% Tween 20 (PBST). SA HRP (GE healthcare RPN4401) was diluted 1/4000 in 4% skim m ilk powder (Fluka BioChemika #70166) PBS, 50 μl/well was added to the plates. The plates were then washed three times with Phosphate Buffered Saline+0.05% Tween 20 (PBST). 50 ul/well of TMB was added to the plates and incubated at RT for 15 min. 25 μl/well of 3 MH₂SO₄ was added to the wells already containing TMB. The plate was read at OD450 nm using the SOftmaxPRO versamax plate reader.

recombinant human IL-23 [4] = biological target: T1, recombinant human IL-23; assay: IL-23/IL-23R inhibition ELISA (optimised protocol, OD450): plate coated with human IL23R Fc chimera, antibody pre-incubated with constant human IL-23, bound IL-23 detected with biotinylated anti-human IL-12; purified antibody
Method: as §1

recombinant human IL-23 [5] = biological target: T1, recombinant human IL-23; assay: SPR (Biacore 3000), CHO supernatant antibody captured on Protein A or anti-human IgG, IL-23 analyte at 256, 64, 16, 4 nM
recombinant human IL-23 [6] = biological target: T1, recombinant human IL-23; assay: SPR (Biacore T100), purified antibody captured on anti-human IgG, IL-23 analyte, 1:1 model
Method: Biacore analysis was carried out using a capture surface on a CM5 chip. Anti-human IgG (BR-1008-39) was used as the capturing agent. Anti-human IgG was coupled to a CM5 biosensor chip by primary amine coupling. Humanized antibody was captured on this immobilised surface and defined concentrations of IL-23 were passed over this captured surface. An injection of buffer over the captured antibody surface was used for double-referencing. […] T100 Biacore machine was used to generate the data; all runs were carried out at 25° C. using HBS EP. Data was analysed using the software inherent to the machine and fitted to the 1:1 model of binding. Tables 7 and 8 detail the IL-23 binding analysis carried out on the 8C92H6.HC1LC1 chimera and selected humanized variants in two separate experiments. Data presented in Tables 7 and 8 are from purified antibody samples. The data shown for the humanized variants is representative of a number of runs. The chimeric mAb (8C9H6.HC1LC1) was only run once in each experiment, so data shown for this mAb is from that one run.

recombinant human IL-23 [7] = biological target: T1, recombinant human IL-23; assay: SPR (Biacore 3000), hybridoma supernatant mAb captured on anti-murine IgG, human IL-23 analyte, 1:1 model, 25 C
Method: (§2) Anti-murine IgG was immobilised on a CM5 sensorchip using amine coupling chemistry. Anti-IL-23 hybridoma antibody sample was injected over the surface and the murine mAb captured. Subsequently recombinant human IL-23, recombinant cynomologus IL-23 or recombinant human IL-12 was flowed over the captured antibody surface at 5 different concentrations (range 0 nM-91 nM) to obtain binding sensorgrams. Regeneration of the surface after antibody and antigen injections was done by injecting 0.1 M phosphoric acid for 3 minutes. Double referencing was used on all sensorgrams with a buffer injection over the anti-murine IgG sensorchip surface. The experiment was performed at 25° C. in HBS-EP buffer. Resulting sensorgram data was analysed using the 1:1 binding model incorporated within the Biaevaluation software for the Biacore 3000 instrument. Data presented in Table 2 are from using hybridoma supernatant taken from a tissue culture flask.

[8] = biological target: T2, recombinant cynomologus IL-23; assay: SPR (Biacore 3000), hybridoma supernatant mAb captured on anti-murine IgG, cynomologus IL-23 analyte, 1:1 model, 25 C
Method: as §2

Endogenous human IL-23 = biological target: T3, Endogenous human IL-23 (human, UniProt Q9NPF7 20-189; P29460 23-328); assay: receptor inhibition ELISA: plate coated with recombinant human IL-23 receptor, endogenous human IL-23 at 3.5 ng/ml pre-incubated with titrated purified antibody, bound IL-23 detected with biotinylated anti-human IL-12; 1% BSA
T3 construct: also called endogenous human IL-23 from stimulated dendritic cells
T3 sequence 1: T1 sequence 1
T3 sequence 2: T1 sequence 2
Method: Recombinant human IL-23 Receptor (R&D systems 1400-IR-050) was coated onto 96 well plates at a concentration of 1 μg/ml. Endogenous human IL-23 at 3.5 ng/ml final, was pre incubated for 1 hour with a titration of purified antibody material before being added to the pre-coated plates. Detection was performed with biotinylated anti-human 1L12 (R&D systems BAF-219) followed by Streptavidin-HRP (GE Healthcare RPN 4401). This neutralisation ELISA used 1% BSA.

| Binder | Kd (recombinant human IL-23 [1]) | koff (recombinant human IL-23 [1]) | kon (recombinant human IL-23 [1]) | EC50 (read off the curve) (recombinant human IL-23 [2]) | IC50 (read off the curve) [3] | IC50 (read off the curve) (recombinant human IL-23 [4]) | Kd (recombinant human IL-23 [5]) | koff (recombinant human IL-23 [5]) | kon (recombinant human IL-23 [5]) | Kd (recombinant human IL-23 [6]) | koff (recombinant human IL-23 [6]) | kon (recombinant human IL-23 [6]) | also measured |
| --- | --- | --- | --- | --- | --- | --- | --- | --- | --- | --- | --- | --- | --- |
| B1 | 4.1 nM | 0.00035 s⁻¹ | 84000 M⁻¹ s⁻¹ | ~0.04 nM | ~0.9 nM | ~1 nM | 2.3 nM | 0.00039 s⁻¹ | 170000 M⁻¹ s⁻¹ | – | – | – | – |
| B2 | 1.6 nM | 0.00038 s⁻¹ | 240000 M⁻¹ s⁻¹ | ~0.04 nM | ~1 nM | ~0.8 nM | 1.5 nM | 0.00041 s⁻¹ | 280000 M⁻¹ s⁻¹ | – | – | – | – |
| B3 | – | – | – | – | – | ~0.2 nM | – | – | – | 0.08 nM | 0.000135 s⁻¹ | 1.67e+06 M⁻¹ s⁻¹ | – |
| B4 | – | – | – | – | – | ~0.1 nM | – | – | – | 0.065 nM | 0.000171 s⁻¹ | 2.64e+06 M⁻¹ s⁻¹ | – |
| B5 | – | – | – | – | – | – | – | – | – | – | – | – | Kd (recombinant human IL-23 [7]): 2.99 nM; koff (recombinant human IL-23 [7]): 0.000301 s⁻¹; kon (recombinant human IL-23 [7]): 101000 M⁻¹ s⁻¹; Kd [8]: 3.38 nM; koff [8]: 0.000369 s⁻¹; kon [8]: 110000 M⁻¹ s⁻¹; IC50 (read off the curve) (Endogenous human IL-23): ~0.06 µg/mL |
